Source: the supplement of paper PMC12042874
± gives the uncertainty stated by the source.

experiment: amyloid nucleation score (Sup35N fusion, yeast selection) (log enrichment); library NNK2; higher = more nucleation; inactive = no reads after selection
How it was run: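 Three technical output replicates were used for random libraries. Psi-negative yeast expressing peptides of 20 random codons fused to Sup35N were induced with 100 μM copper sulfate for 24 hours and grown 7 days at 30°C on medium lacking adenine and uracil, and input and output plasmid inserts were Illumina-sequenced, excluding sequences with under 100 input reads. The nucleation score is the DiMSum log enrichment of output over input reads, centred on the mode score of non-aggregating sequences.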

| Substance | amyloid nucleation score |
| --- | --- |
| LCAGGVGRRWLVLDTAECDG | 0.59 ± 0.64 |
| YSMGAYTVSMGACA | -1.05 ± 1.1 |
| SQHGVKNLSSRFESLIA | -0.197 ± 0.79 |
| VSRFDA | 0.306 ± 0.31 |
| ILPISVLVDHINWSDPYFIM | 0.035 ± 1 |
| FYFEMVTSD | inactive |
| VPIKALLPHSKFGNQSRFNY | 0.438 ± 0.4 |
| CGLVLVIRVYITSLYNSRFM | 1.49 ± 0.14 |
| YGFGHRGNMTAWLSMATKTF | -0.109 ± 0.76 |
| INIIMFNVFINLEHIYYSVG | 5.79 ± 0.066 |
| GVLYWALLDGGVQRGQDMKL | 0.641 ± 0.62 |
| NYDGCRWWW | inactive |
| YRFRVLCQVCNHGLRYKFFT | 0.372 ± 0.37 |
| SDFIMTLSERVVGASLNSCD | inactive |
| DRLTG | -0.705 ± 1.1 |
| NDRSSDWCCIPSKLRWSRSG | 4.1 ± 0.057 |
| FRFFCHISMNLGTLWRLDCL | -0.405 ± 0.44 |
| LRAVWATVIVSVAMSVSCPK | 5.07 ± 0.07 |
| MTCCF | -0.877 ± 1.1 |
| SSNFRLSLWYSKMM | -0.246 ± 0.36 |
| IFKINVVVSSNTAQ | 2.4 ± 0.21 |
| LIRKFRVVVMFSYVQVLPVI | 0.173 ± 1.1 |
| LLGISLLSLWTFGYLSEIVV | 0 ± 0.8 |
| VLGYPKTSTVHALPHTTMLP | 0.943 ± 0.53 |
| YHLKYRGSMGVPCLNTFVWN | 5.15 ± 0.055 |

| Substance | amyloid nucleation score |
| --- | --- |
| TLSSKLFCVKASVRSMGPVV | 7.723 ± 0.047 |
| SVKCWVALAPYLGDRKDPVW | 2.94 ± 0.15 |
| TRYYMYIRDVH | -0.533 ± 0.44 |
| GMCLTGSTSVRTNNSPHVSR | 0.803 ± 0.32 |
| CPGRRTISFYSFSFVFRSMN | inactive |
| SMSKYAISYKLVVRKKYRSG | 1.83 ± 0.11 |
| LQTQFTAVC | 0.27 ± 0.22 |
| CRYTASASDPDDTGLIRFNA | 3.75 ± 0.073 |
| NDWCRGENITALWDGYGSGL | 0.597 ± 0.46 |
| VWVRIQMWYDIMSSASQLYR | 0.446 ± 0.33 |
| IRADIHKLHLTIIYFKPPLV | -0.47 ± 0.78 |
| EMSVRPGVSRKIWS | 0.43 ± 0.49 |
| GWAKPMGFNLILR | 0.265 ± 0.31 |
| VRWTRILVLIMFYAMSSTGT | 2.65 ± 0.073 |
| GFSWDNESFLCELKMGCLTG | -0.646 ± 0.31 |
| YQDWGSSTLLIVIKSWAGET | -1.02 ± 0.33 |
| SQFAVRKEGTDSEEFLKSVV | -0.197 ± 0.48 |
| QKKLDLQ | -0.673 ± 1 |
| VSSRYCTCRLCHPWYSFWFS | -0.625 ± 0.54 |
| KRWIT | -0.65 ± 0.55 |
| VYYVWRNCLSDCLYYILTYF | -2.05 ± 0.78 |
| TVGEPIIRLYRFVRFFCLAN | -1.79 ± 0.78 |
| HTAMCAVSGFRNIWSKPVKF | -0.817 ± 1.1 |
| CNHFMTFRWWLVEQAGSMLA | 0.044 ± 1.1 |
| PYSVTEHICGIWLVWCIVGS | -0.418 ± 1.1 |

| Substance | amyloid nucleation score |
| --- | --- |
| RMCWELFT | 0.022 ± 0.34 |
| EWVYFLCSFHPSIDFLNISD | 5.62 ± 0.076 |
| DRRMGLIVPRMSDRTDPFSY | 0.489 ± 0.29 |
| WLFSVSISGREDMMWSGLLE | 0.061 ± 0.4 |
| SLSGVV | inactive |
| INIMARIWLQSVWLSVGRKS | 0.097 ± 0.79 |
| RSGVL | 4.24 ± 0.066 |
| CQSCYYHNR | -0.77 ± 0.21 |
| YSGLSNLLGKMKRGSSLWVD | inactive |
| DLSNSIVLLGFDNSQWLRDA | 1.78 ± 0.095 |
| RTDRSYRGLKPVVLVTQWGG | -0.106 ± 0.63 |
| YSYWLSILRNVEL | 4.18 ± 0.079 |
| YLSLVKSPLSSLNSFWTWM | -0.348 ± 0.23 |
| ITVFILDRYFGICV | inactive |
| ESQNECVGYNMLDCMKLSRG | 4.052 ± 0.037 |
| FHKKAMIRSFCPKEIDLGSM | inactive |
| QNCSHGSLCG | -0.022 ± 0.25 |
| VTRVWYRTSDCDAYSHGNFL | 0.991 ± 0.27 |
| AFSVFSWSFQWQTSCWQICE | 5.022 ± 0.038 |
| YVCRSGWDLVAKFGILRREE | 2.17 ± 0.2 |
| YIGRMVV | 0.306 ± 0.65 |
| VQEERAFKWVR | 0.44 ± 0.42 |
| FVFIYYIVLQHATANHSMQA | 4.921 ± 0.044 |
| KLISCGCVLADWNMGYP | 3.76 ± 0.12 |
| YEYVCVLAVACITGRFTLHW | -0.757 ± 0.36 |

| Substance | amyloid nucleation score |
| --- | --- |
| VRPRAPSSADNPLQ | 0.121 ± 0.49 |
| DWQRRFAQIMIRGFNVILVT | 0.097 ± 1.1 |
| YLLHNSLKFRVHHSL | -0.68 ± 0.39 |
| VIKKQCCHTYSVLTFRILNC | 0.151 ± 0.63 |
| EQIGQ | 2.92 ± 0.089 |
| FLIFVFLLYGPEMSDYCWTF | 0.14 ± 1 |
| SDLGCLRYRTKGGAVGVDGV | 0.653 ± 0.21 |
| DVLEIFVMTRGIVEVNPDSN | 8.665 ± 0.031 |
| GQTIL | inactive |
| DMSIRRRI | -0.419 ± 0.32 |
| GDPLS | 0.162 ± 0.28 |
| SSFFLGLPPIREIGPWTTQR | 0.168 ± 0.27 |
| SSSEVSFSCYVVDVQLS | -0.603 ± 0.49 |
| LKMSHIYCSIIITAYLNWLV | inactive |
| MLVCRWNACSVVLSVSGLAR | 0.718 ± 0.21 |
| PSVSRLIESNFCSSIRFFTH | -1.04 ± 0.64 |
| GRNVMTKAPYCTCWANVLHS | 6.67 ± 0.075 |
| WMIIVA | 0.582 ± 0.54 |
| FCMNTQH | 5.288 ± 0.042 |
| NAFGTSFCEIMRR | 1.22 ± 0.33 |
| SNFLVYS | -0.636 ± 0.61 |
| RSSRW | 2.82 ± 0.1 |
| DICVKSRRSRPRV | 0.591 ± 0.51 |
| WKSLGNSAVVIRLAS | -0.453 ± 1.1 |
| STNSDFLYQKNLPMVSSGNI | -0.408 ± 0.79 |

| Substance | amyloid nucleation score |
| --- | --- |
| FVLNHLAV | -0.548 ± 0.54 |
| MSWIGCYYYFNAQQHNSG | 9.318 ± 0.052 |
| SCRLLDSFDPMSRGKSSQRR | -0.003 ± 1.1 |
| LECVT | 0.078 ± 0.74 |
| YLSYSTLLPKSETEWMYCVL | -0.631 ± 1 |
| KYVSCNLLIGWYTLFSFYPF | -0.649 ± 0.4 |
| LVLNKNCLKVI | -0.426 ± 0.6 |
| FAPRSKPLRSLFEGLLF | 0.495 ± 0.57 |
| SNSYGGDTQRY | -0.517 ± 0.33 |
| DLSCGGRLKMNHYKA | -0.686 ± 0.76 |
| DHSYRRYVVEGLFSVSQNGK | 0.21 ± 0.54 |
| GSSVEMQLCELTSGGFDLSL | 0.228 ± 0.32 |
| NMWLCNGSGRHRFWLR | 0.269 ± 0.51 |
| SCPNYTVSIWIYMPFFSWLR | 2.81 ± 0.08 |
| TCQPGRLALNAKERGSGDRL | 0.482 ± 0.3 |
| INPSWVSCVHFM | 0.062 ± 0.74 |
| LATKMSRGYSIRDWS | 0.052 ± 0.24 |
| RRVNFMKVTFNLKVILFRWS | -1.52 ± 1.1 |
| WGFIAVDGRPIVASLRYSMR | 3.51 ± 0.084 |
| HIAID | 0.401 ± 0.56 |
| AYKCFGVLCFRRNRSGKEGL | -0.318 ± 0.76 |
| MVKSHLMTKFCD | -0.394 ± 0.34 |
| GARYTIWECF | inactive |
| FIWSYVLSRGSV | -1.03 ± 0.31 |
| MVCVELFWFARLSLPGA | 0.246 ± 1.1 |

| Substance | amyloid nucleation score |
| --- | --- |
| VGFSLLNKTLCFGDRCTNIS | inactive |
| NRDFMCESVRNCTLALMIGS | inactive |
| QWMRSWNDTGRAES | 2.13 ± 0.1 |
| DVVMG | 0.701 ± 0.51 |
| SSFFPRQ | -0.767 ± 0.76 |
| FYLNKDNLWNSNLGGSAHKC | -2.38 ± 1.1 |
| RHGVMLGAVGVGSNDGSFLS | 2.29 ± 0.28 |
| KRINCPKFSNGQYGLS | inactive |
| SYECCNKMQDINSMCGKLYW | 0.274 ± 1.1 |
| ESADQWAVTMVGRHFYLVLR | 0.294 ± 1.1 |
| PALTIEIMSYGASQHGFSLV | 0.367 ± 0.28 |
| FLFSIF | inactive |
| FSLHKCNVRLGISNGT | -0.276 ± 0.48 |
| FFLSNWAAF | 0.234 ± 0.55 |
| NSYVKVHSIVG | inactive |
| LDMITTINS | -1.6 ± 0.54 |
| PGVMHICLCRTHTSRCKCTL | 0.402 ± 0.57 |
| TLLTYMVLKCFQFVSEYLWK | 3.7 ± 0.07 |
| LLQKDEVRE | -0.505 ± 0.3 |
| NSVDYSWCCNTSRIRMLVNR | 1.2 ± 0.1 |
| STVYIVCHGVILRVRMGPWL | 2.46 ± 0.12 |
| DNRNCPAHWWASFTMKPGSE | 0.14 ± 0.49 |
| CMGFLYTNTYCGGILIELFI | inactive |
| YNGRAIEHCQSMVSFRAVSR | -0.041 ± 0.6 |
| VRVGVWSMTFG | -0.52 ± 0.78 |

| Substance | amyloid nucleation score |
| --- | --- |
| RPWLVY | 0.026 ± 1.1 |
| LAAVLVHAWFVKRLRMPNHH | 0.93 ± 0.44 |
| VVRYLPCRRLPVWWVVCYEI | 0.488 ± 0.29 |
| VCKMSSLNLCKRP | -0.133 ± 1 |
| IHNPLVRY | -0.366 ± 0.41 |
| VRMNPITAGLCVQCLHTQRF | -0.654 ± 1 |
| SAGYKLDSCTVYWGLACDSR | -0.366 ± 0.79 |
| TMLFRRFYSFMSTL | -0.053 ± 1 |
| SNEPIGTASLHDYVGPRVST | -0.332 ± 0.44 |
| YVFLWWLKFCFGYH | inactive |
| GCRDMIWVGL | inactive |
| GFRNCWKWPHWVLAPMLYNS | 0.007 ± 1.1 |
| SIGIRIEVLHAYLQTVISNA | -0.639 ± 1 |
| GNRVYGDYCFYTTMGWASW | -0.379 ± 0.55 |
| TGFCGRHYDLSSSTEDLYLL | 0.606 ± 0.8 |
| HLYLEYGNVTWGWVMVLIVG | inactive |
| GRAYHESLSGDFVLFSSRRC | -0.815 ± 0.63 |
| LSIRWLTSCYLYGLLGSSGK | 0.256 ± 0.29 |
| KLRPNLCKHYMTFMETSS | 0.175 ± 0.53 |
| MMGRTTWMDIKIYWENQCAE | -0.176 ± 1.1 |
| LYLYGDYV | 7.65 ± 0.079 |
| ESMGGEYQGGVFVG | 0.448 ± 0.38 |
| PVGFDHNF | -0.451 ± 0.56 |
